Data from patent publication US20040254352A1, “Lipid-polymer-conjugates” (priority 2001, published 2004).
Several values for one entry are separate records, joined by “and”; a condition that tells them apart may be missing. Identical values can stand only once.

Columns and labels:
[1] = Comparative kinetics of 3H-labelled liposomes containing polymer-lipid-conjugates after a single intravenous injection to the rat (blood circulation time); settings: for Increase of blood circulation time: rat, single i.v. injection; for Blood circulation time of the liposomes compared with PEG-grafted liposomes: intravenous administration to rats
Protocol: Single-dose intravenous injection of liposomal preparations, each containing ^3H-labelled cholesteryloleylether (Amersham) having 40-50 kBq of radioactivity, (compositions per 50 μmol lipid are shown in Table 1) was given into the tail-vein. Total Lipid administered was 5 μmol, except in the cases indicated.
Blood samples were collected from the tail vein of each rat at the following time points post-dose: 5 minutes and 4, 24 and 48 hours. The amount of sample collected was approx. 300 μl per sampling event.
Sampled blood was transferred into heparinised tubes and stored at −20° C.
A single aliquot of 100 μl was solubilised according to the following method:
Radioactivity was measured by LSC.
All radioactive measurements were performed using a Packard scintillation counter (1900TR). Counting time was to a statistical precision of ±0.2% or a maximum of 5 minutes, whichever comes first. The Packard 1900TR was programmed to automatically subtract background and convert counts per minute (CPM) to disintegrations per minute (DPM).
The increase of blood circulation time was assessed, wherein:
Moderate means effect on circulation time in between those shown by PEG-DSPE-containing liposomes and bare liposomes without polymer coating.
Slightly means effect on circulation time under the current conditions almost similar to that shown by bare liposomes.

[2] = Particle size and polydispersity of liposomes by (dynamic) light scattering; assay type: physicochemical; settings: DPPC/cholesterol/conjugate liposomes of Table 1 (Example 21); for Average particle size: dynamic light scattering
Protocol: The lipid loss during preparation of the liposomes was 25%, determined by comparing the final radioactivity of the preparation with the activity before the extrusion procedure. The suspension of liposomes was stored in a nitrogen atmosphere at 4° C. Liposomes were prepared using the film method, as described in example 20. Instead of egg phosphatidylcholine dipalmitoyl phosphatidylcholine was used. 5 mM HEPES buffer was added to the dry lipid film and shaken during 5 minutes in the presence of glass beads in order to enable complete hydration of the lipid film. The liposomes were sized by extrusion 12 times through 2 stacked PC membranes having pore sizes of 100 and 200 nm. […] See table 1 for the properties of the liposomal preparations.

[3] = as above; assay type: physicochemical
[4] = Storage stability of prednisolone phosphate liposomes at 4° C. (percentage encapsulated prednisolone phosphate versus time); settings: compared with poly(2-hydroxyethyl)-L-glutamine-diaminobutane DODASuc-conjugate-containing liposome
[5] = Total Lipid administered 5 μmol
[6] = Total Lipid administered 0.005 μmol
[7] = Total Lipid administered 0.05 μmol
[8] = Total Lipid administered 0.5 μmol
[9] = prednisolone phosphate liposomes of Example 23, light scattering
[10] = 11.2 mg conjugate per 50 µmol lipid
[11] = 13.8 mg conjugate per 50 µmol lipid

Compound | Increase of blood circulation time [1, 5] | Polydispersity index [2] | Average particle size [2] | further results
CCCCCCCCCCCCCCCCCCN(CCCCCCCCCCCCCCCCCC)C(=O)CCC(=O)NCCC(=O)NCCC(=O)NCCC(=O)N[C@@H](CCC(=O)NCCO)C(=O)NCCC(=O)NCCC(=O)NCCC(=O)NCCC(=O)N[C@@H](CCC(=O)NCCO)C(=O)NCCC(=O)NCCC(=O)NCCC(=O)N[C@@H](CCC(=O)NCCO)C(=O)NCCC(=O)NCCC(N)=O [Ex. 19, DODASuc-(β-Ala)3-HEG-(β-Ala)4-HEG-(β-Ala)3-HEG-(β-Ala)2-NH2] | Moderate |  |  | 
Cholesteryl-PHEG [Ex. 6] | Slightly | 0.116 | 138.7 ± 1.8 nm | 
PEG-distearoylphosphatidylethanol-amine [PEG-DSPE, reference compound] | Good |  | 156.3 nm | Increase of blood circulation time [1, 6]: <Slightly; Increase of blood circulation time [1, 7]: Good; Increase of blood circulation time [1, 8]: Good; Mean particle size [3, 9]: ~90 nm
PHEG-diaminobutane DODASuc [Ex. 5.1] | Good and Good § | 0.090 and 0.073 | 140.3 ± 2.2 nm and 159.0 ± 3.8 nm | Blood circulation time of the liposomes compared with PEG-grafted liposomes [1]: Results similar to those obtained with the corresponding PEG-grafted liposomes
Poly(2-hydroxyethyl)-DL-glutamine diaminobutane DODASuc [Ex. 7] |  | 0.073 | 159.0 ± 3.8 nm | 
Poly(2-hydroxyethyl)-L-asparagine DODASuc [Ex. 11] | Good and Good § |  |  | Stability of liposomal preparation with encapsulated prednisolone phosphate [4]: slightly better result; Blood circulation time of the liposomes compared with PEG-grafted liposomes [1]: Results similar to those obtained with the corresponding PEG-grafted liposomes; Increase of blood circulation time [1, 6]: Slightly; Increase of blood circulation time [1, 7]: Good; Increase of blood circulation time [1, 8]: Good
Poly(D,L-methionine sulfoxide) DODASuc [Ex. 15] | Good | 0.062 | 159.9 ± 2.3 nm | Blood circulation time of the liposomes compared with PEG-grafted liposomes [1]: Results similar to those obtained with the corresponding PEG-grafted liposomes
Poly(DL-asparagine) DODASuc [Ex. 17] | Moderate |  |  | 
Poly(DL-glutamine DODASuc [Ex. 16] | Moderate |  |  | 
Poly(DL-serine) DODASuc [Ex. 13] | Slightly |  |  | 
Poly(N-(2-hydroxyethyl)-L-glutamine) Having a Heptadecyloctadecylamine End Group [Ex. 2] |  | 0.205 | 143 ± 2 nm | 
Poly-L-threonine DODASuc [compound 14] |  |  |  | Mean particle size [3, 9]: about 85 nm
Poly-[(2-hydroxypropyl)-L-glutamine]diaminobutane DODASuc [Ex. 5.2] |  |  |  | Average particle size [2, 10]: 163.9 ± 3.0 nm; Average particle size [2, 11]: 153.0 ± 0.9 nm; Polydispersity index [2, 10]: 0.068; Polydispersity index [2, 11]: 0.090
Poly-[(4-hydroxybutyl)-L-glutamine]diaminobutane DODASuc [Ex. 5.4] |  | 0.071 | 148.2 ± 1.7 nm | 
Poly-[N-(2-hydroxyethyl)-L-glutamine] Having a Distearylamine End Group Introduced Via N-Boc-1,4-diaminobutane as Initiator [Ex. 3] |  | 0.056 | 153 ± 0.5 nm | 
poly(HEG-co-dimethylaminoethylglutamine)diaminobutane DODASuc; 5% dimethylaminoethyl sidegroups [Ex. 9] | Moderate | 0.039 | 170.3 ± 2.5 nm | 
poly-[N-(2-hydroxyethyl)-L-glutamine]-stearylamine [Ex. 20] |  | 0.167 | 171.6 ± 2.5 nm | Polydispersity index ([3]; EPC/cholesterol/PHEG-stearylamine liposomes of Example 20): 0.099±0.02; Mean particle size ([3]; EPC/cholesterol/PHEG-stearylamine liposomes of Example 20, light scattering (Malvern Zeta-sizer)): 93.6±0.9 nm
